In a protein production outcome set (Wang et al. 2014) one finds protein production data, which are given here for 15 sequences.

The series is described as follows: label from the status in PepcDB records.
Turning to “MHNAGKQVAAPLETPMPAATAALLAERADHPLYVASVEKGMRVLEAFDAARDSLSLTDIVQLTGMGKSAAQRFTHTWEALGYLAKDPQSRRYRLGPKVVELSYYFLRSDHLVSLAAPHLVALREHCGLAVNMSVLSGDDMIYLLRLPSRQLTLVEMLPGRRMPAWSNSAGRMLLSQRDDASVRDLLARAAPQLYTPRTQTDPQALLAEIRQAREDGYAITQDQVLLNQMGVATLLRDERRQPLAAISVTAAADEYPRARLVAEIVPQMLKAAYAICGA”, the protein production entry is “failed”. The same measure for “MHNKKWDLRIICAHAFTILIWGSAFPAIRMGLASYTPEHLTLLRLLIASFILLLFSFIYKLRIPDLKDIPAIFIFGALGFTFYHIALNYGEKTVNAGSASLIVSVTPIVTAILASIFLNEKMKLNGWIGGGISFIGIALISFSQGDAIQLNSGGFFILLAAISESLYFVFQTSYLKKYGFLPFTIYTILSSTVCMLIFFPGMYTEILAAPLEVNMSVIYLGLFPTVLPYIALAYIISHSGAAEATSSLYLTPVTACFVAWIWLGEVPTFVSIIGGGITILGILIVHIPVLRKEKHRNLANNQSV”: “failed”; for “MHPCHRPSFAFLRHPLSIVVCLALLAGCSTSPLQFPEPLLAKSEKAKATEGVALVSDDGKKAPASLAVPKTEFSGTPTSPRSIVGGVVDRMDKAILDDKKADISLNVEDVQLAAFINEVFGNILGLPFEIESALKEKTDRVTVRLEQPQTAQMVYEVARQVLVNYGVEILHQGDIYRFQIKQVGLSPDEPPILISGEARPSVPIAYRPVFQFVALHSVDPKDVIPWLNSAYEKSGLSVMADGARSGLMLKGMSSIVNQATEAVRLLDQPFMRGRHSLRIDPAFVSAADMASQLKTVIAAQGYSVGIGEAVGSIMLVPLESSNGLIVFANDGQLLDLVREWAQQVDRAPMAVAAGIGEEKEGLFFYEARNTRVTELAKSLRALVSGFAGEGAYGITSGLQSSASKRSGGGRRAGDDGAAPAVAPLLQAAGAAALVGGDGANGLLGGLAAGISGSGTIVEDENRNAILFRGAARTWQQMQGLLREMDKPARQVLIEVTVASVSLSDTQELGVEWEMLNGSFNSATSTGSKGSAGKGGFNYVINTAGGNTAAIQAMADNQRVRVLATPRILVKSGEQANINVGRDIPIPTAQVNDDSTTAGSTNLRNEIAYRSTGTILNVAPVVYSDSRVDLTVSQELSDSGGSSGGGGKASGGGISAPEISRTSLETSLTLKSGGSVLMGGLIRDNITDSNAGVPLLKDIPGIGFLFGRQKAVKTREEVIMLIQPYVLESDADAREVTEKLHAMLSKTLACSDRPGACRME”: “failed”; for “MHPFRWQRSRQRSSALSFLKKAFYQIPVIGWLVKDAAHGSPEAPYFFLFNAVVVGAALIYTFGYPLVITVAVAGAFAGIAGLVVLTAGDAFDKRAKQPATDVRRAKTATVRPLKKAA”: “failed”. Next, “MHPPIVMSTLPPSVAPPIGTAPQRHSLVSLRRLSWLRWALLAGQALLLVSCESLAGIALPYKPLLFLFAVQTVFNVFTVARLHWHTRHGTAPSDAELMVQMMVDLTALSAILFYTGGATNPFVSFYLPGLAIASAILPWRLVVTLAAYALACYSMLLLEYIPLDLHNPDNAVNYHLAGMWLNFVASAVMIAFFVARLSNALRQRDAQLNEARELLLREARVEALNDQAAAVAHEIGTPLATLAVIAGELRADAENTNRSDTPVADYQADLRTMEQQLELCRSILARLRADHETLAPQRIDAWLAPFVERWQLRHPQASLQAGAAPDAAAQAVDTARISQILTIALDNAARSQQAAGHDHRQGPPLRLDIAREADALVYRVTDHGHGLPPGLRARLGESPVASAHGGQGIGLYLAQSAARQLGGQISWHDNPAGGTVLELRLPLTAASERAIAAQPDFQP”: “failed”; “MHPVKALKQGVKNGTMPIIARFYGIIIKMFFNEHLPPHFHALYGEYNAIFNINTLEMIEGDMPLRARKLVVEWAENHQKELEIMWETKEFKQLPGLELEHHHHHH”: “not failed”. Consider “MHRHVVTKVLPYTPDQLFELVGDVDAYPKFVPWITGMRTWNGRVDGAVSTVDAEAQVGFSFLREKFATRVRRDKDARSIDVSLLYGPFKRLNNGWRFMPEGDATRVEFVIEFAFKSALLDAMLAANVDRAAGKLIACFEARAQQLHGALEHHHHHH”, for which the protein production entry is recorded as “not failed”. Take “MHSIRNFFCGQWSSSVRLDEKTVIITGANTGIGKETARDLARRGARVVMACRDLEKAEAARRELMDNSGNQNIVVKKLDLADTKSIKAFAELINKEEKQVNILINNAGIMMCPYSKTADGFEMQFGVNHLGHFLLIYLLLDLLKKSTPSRIVNVASVAHTWSGIHLEDINSEKVYSPRRAYGQSKLANILCTRSLAKRLQGSGVNVYSLHPGVVQSELFRNLSKPAQIAFKVFSPFTKTTSQGAQTTIYCAIEPELDRESGGYYSDCGPAQCSREASDDEMAQKLWELSCQMLGIIWD”: the protein production result is on record as “failed”. For the sequence “MHSNSWMSCKAVDNAEKEALLLQLQADADGPRRRCEIRERSLGQAVMLALLSLLLVLLGGWLASLPSAWQLRSAQLWFWLPGALMLGAGLVGLAAAEALRRRHGQQVLALTPDTLQFANAPDPTPWVCFDGFELEQRYLSLGLVFSVIAGSRAPALAPACFKSLAAPHAWPVAAGMRVRLWLFNPMLDGQRLDFQALTDLLYAYLNAAQARSTLGQLFPEVQRVGATQ”, the protein production entry is on record as “failed”.

As for “MHSQTLRLASYNIQKCVGLDLRRQPRRILQVLDAMGARIAVLQEADKRLPPRPAALPHFVLEEAGWQVVDLGGAGSLGWHGNAVIWKGAGITQLASAHHDLPGFEPRGAVRVEFDTPIGPLRVLGLHLGLLPASRRDQIVHLAHDLERLPPMPTVWAGDFNEWSRQPVLDHLAPMLRFLPARPSFPAPRPLGALDRIAHSPELSAVAHGVFAERPAPIASDHLPVWADLTRPV”, the protein production entry is on record as “failed”. The same measure for “MHVFGLPAIGALAGTQAYWVSLVDVYAAQARIAATGMYPSGRVKRAFPGCCRGYWGDAGGSVRAGWISAAWPYGRFDRSGRPVGGAQPQVIWCEVGCGMGEHELMIFGNKDLPQRTPERPLVTFAVFAYNQESFIRDAIEGAFAQTYEPLEIILSDDCSDDETFLIMQQMAAAYRGPHKVVVRKNHENLGVLGHVLTVAKMAAGKYMVVAAGDDISFPDRTERQVSFLERESDRVVVVSSHDVIFDENCDLPNQKQDSNLRLRKQWYKNNNSWFHGGTACYRLGVLRELPLPTSRLLYEDMALINIFKAMGYSSGFMEIPTIRRRFHQLNLGMQRPERNPWDEERRILRRIEHAADVMDYAADVIEGEGGKAAKLRVQAAIMRKYAKWPDLNFVDRFLLFFESLKAGYMRKASAKVLLGKDVVLDIRSLWC”: “failed”; for “MHVQEWLDTVPAAAVYAVVGLVIGLESLGIPLPGEIILVSAALLSSQHGGIDPLVLGACASAGAVIGDSIGYAIGRKGGRPLLAWLGGKFPRHFGEGHVATAERSFQKWGMWAVFFGRFVALLRIFAGPLAGVLRMPYWKFLIANVLGGIVWAGGTTAVIYYVGVVAEDWLKRFSWLGLVVAVLIGIASMLIVKRRAGKAQQTPEPVAAGE”: “failed”. The same measure for “MHVVQGAKTMWNKIQVVSHGRGGLRSQCCETTMIGHPTPTPAQDSETQPSPQEHIPEKKPLPKEIGGRDGPEPTRYGDWEKNGRCIDFLEHHHHHH”: “failed”.

Take “MHYTETGSPRLAILIDADNTFRFINVIDELLEEISKYGDVSIRRIYGDWTETKMQRWKEILPKYAIQPIQQYANTKGKNSTDSALIIDAMDLLYTAPLDGFCIVSSDSDFTRLATRLRESGKQVYGFGEQKTPDSLIAACNKFIYIEILSKEKLSDPPEPTPISTSETSASVESKPPAAPSTPLSPAALAPGIRKSSRELAMDTRLISLIRSAISALSDDDGYAHIGEIKKYMIKNFPAFDSRNYGYSKFSELIKATGLFDIDKDKQRIKDKRKK”: the protein production entry is recorded as “failed”.

Regarding “MIAHLLLSLALLLTAAKLGGVLAVRLGQPAVLGELVAGIALGALPALGLHGAAGLAHDPVLEALAELGVILLLFEVGLSTRLAELVKVGASAFLVACIGVVAPMALGYGVGAWLLPGASPLAHLFLGAALSATSVGITARVLRDMGRIGSPAGQIILGAAVIDDVLGLLVLAVMVGLAGGGGDGAGTWTVLALVGAKAVGFLGAALVAGRWAAPRLFAVAARLRAQGVLFTLALAVCLALSWAASAVELAPIVGAFAAGLVLEGVPFAELSGGEERLEERLTPLAAVLVPLFFVRMGLAVDLGALGTGSLALAGALSVAAIVGKQACALAVVTPGVDRLAVGLGMIPRGEVGLIFANIGLSLTAGGRPLLGPGAFAAIVAMVLVTTLVTPPLLRWRMGSAPAAAAVRPGPGVRAA”, the protein production result is listed as “failed”.
